Measurements published in the RNAGym collection of RNA variant scans (doi:10.1101/gr.219683.116).

B1: mRNA-splicing (parent)
chain: AGUUGCUGCUGGGAGCUCCAGCACAGUGAAAUGGACAGAAGGGCAGAGCAA

Variants of: B1
Assay: exon inclusion enrichment index; higher = more inclusion; WT1 exon 5 minigene, HEK293

Variant | exon inclusion enrichment index
AGACAGGGAUGGGAGCUCCAGCACAGUGAAAUGGACAGAAGGGCAGAGCAA [U3A U4C G5A C6G U7G C9A] | 0.0761
AGUUCGCGCCGGGAGCUCCAGCACAGUGAAAUGGACAGAAGGUCAGAGCAA [G5C C6G U7C U10C G43U] | 2.89
AGUUGGUGCUGGGAGCUCCAGCACAGUGAAAUGGACAGAAGGGCAGAGCAA [C6G] | 0.0263
AGUUAUGGAUGGGAGCUCCAGCACAGUGAAAUGGACAGAAGGGCAGAGCAA [G5A C6U U7G C9A] | 0.561
AGUUAGGGAUGGGAGCUCGAGCACAGUGAAAUGGACAGAAGGGCAGAGCAA [G5A C6G U7G C9A C19G] | 0.00133
AGUUCGCGCCGGGAGUACCAGCACAGUGAAAUGGACAGAAGGGCAGAGCAA [G5C C6G U7C U10C C16U U17A] | 3.78
AGUUACUUCCGGGAGCUCCAGCACAGUGAAAUGGACAGAAGGGCAGAGCAA [G5A G8U U10C] | 1.78
AGUUGACGACGGGAGCUCCAGCACAGUUCAAUGGACAGAAGGGCAGAGCAA [C6A U7C C9A U10C G28U A29C] | 2.72
AGUUCAGGCCGGGAGCUCCAGCACAGUGAAAUGGACAGAAGGGCAGAGCAA [G5C C6A U7G U10C] | 0.429
AGUUUCUUUUGGGAGCUCCAGCACAGUGAAAUGGACACUAGGGCAGAGCAA [G5U G8U C9U G38C A39U] | 0.00329
AGUUGCUGCUGGGAGCUCCAGCACAGUGAAAUGGACAGAAGGGCAGGCCAA [A47G G48C] | 0.0501
AGUUGCUGCUGGGAGCUCCAGCACAGUGAAAGCGACAGAAGGGCAGAGCAA [U32G G33C] | 0.143
AGUUGAAGAAGGGAGAACCAGCACAGUGAAAUGGACAGAAGGGCAGAGCAA [C6A U7A C9A U10A C16A U17A] | 0.501
AGUUACCACCGGGAGCUCCAGCACAGUGAAAUGGACAGAAACGCAGAGCAA [G5A U7C G8A U10C G41A G42C] | 2.53
AGUUACCACCGGGAGCUCCAGCACCCUGAAAUGGACAGAAGGGCAGAGCAA [G5A U7C G8A U10C A25C G26C] | 2.75
AGUUAUAUAUGGGAGCUCCAGCACAGUGAAAUGGACAGUUGGGCAGAGCAA [G5A C6U U7A G8U C9A A39U A40U] | 0.0161
AGUUCAAUAUGGGAGCUCCAGCACAGUGAAAUGGACAGAAGGGCAGAGCAA [G5C C6A U7A G8U C9A] | 0.415
AGUUGAAGAAGGGACAUCCAGCACAGUGAAAUGGACAGAAGGGCAGAGCAA [C6A U7A C9A U10A G15C C16A] | 0.525
AGUUGCUGCUGGGAGCUCCAGCCGAGUGAAAUGGACAGAAGGGCAGAGCAA [A23C C24G] | 2.29
AGUUGCUGCCAGGAGCUCCAGCACAGUGAAAUGGACAGAAGGGCAGAGCAA [U10C G11A] | 1.76
AGUUAUAUAUGGGAGCUCCACGACAGUGAAAUGGACAGAAGGGCAGAGCAA [G5A C6U U7A G8U C9A G21C C22G] | 0.197
AGUUAGGGAUGGGAGCUCCAGCACAGUGAAAUGGACAGAAGGGCAGAACAA [G5A C6G U7G C9A G48A] | 0.000556
AGUUACCACCGGGAGCUCCAGCACAGUGAAAUGGACAGUAGGGCAGAGCAA [G5A U7C G8A U10C A39U] | 0.113
AGUUACCACCGGGAGCUCCAGCACAGUGAAAUGGACAGGAGGGCAGAGCAA [G5A U7C G8A U10C A39G] | 1.33
AGUUGCUGCUGGGAGCUCCAGCACAGUCGAAUGGACAGAAGGGCAGAGCAA [G28C A29G] | 0.405
AGUUAGACAUGGGAGCUCCAGCACAGUGAAAUGGACAGAAGGGCAGAGCAA [G5A C6G U7A G8C C9A] | 0.0442

Variant | exon inclusion enrichment index
AGUUGACGACGGGAGCGGCAGCACAGUGAAAUGGACAGAAGGGCAGAGCAA [C6A U7C C9A U10C U17G C18G] | 2.57
AGUUCUUCUCGGGAGCUCCAGCACAGUGAAAUGGAAUGAAGGGCAGAGCAA [G5C C6U G8C C9U U10C C36A A37U] | 0.939
AGUUAUAUAUGGGAGCUCCAGCAGUGUGAAAUGGACAGAAGGGCAGAGCAA [G5A C6U U7A G8U C9A C24G A25U] | 0.0695
AGUUCGCGCCGGGAGCUCCAGCACAGUGAAAUGGACAGAAGCCCAGAGCAA [G5C C6G U7C U10C G42C G43C] | 3.63
AGUUGCUGCUGGGUCCUCCAGCACAGUGAAAUGGACAGAAGGGCAGAGCAA [A14U G15C] | 0.0264
AGUUAUAUAUGGGAGCUCCAGCACAGUGAAAUCAACAGAAGGGCAGAGCAA [G5A C6U U7A G8U C9A G33C G34A] | 0.0386
AGUUUCUUUGUGGAGCUCCAGCACAGUGAAAUGGACAGAAGGGCAGAGCAA [G5U G8U C9U U10G G11U] | 0.498
AGUUAGGGAUGGGAGCUCCAGCACAGUGAAAUGGACAGACGGGCAGAGCAA [G5A C6G U7G C9A A40C] | 0.00374
AGUUAUAUAUGGGAGCACCAGCACAGUGAAAUGGACAGAAGGGCAGAGCAA [G5A C6U U7A G8U C9A U17A] | 0.0566
AGUUGACGACGGAUGCUCCAGCACAGUGAAAUGGACAGAAGGGCAGAGCAA [C6A U7C C9A U10C G13A A14U] | 3.22
AGUUAGGGAUGGGAGCUCCAGCACAGUGAAAUGGACAGAAUCGCAGAGCAA [G5A C6G U7G C9A G41U G42C] | 0.00698
AGUUUCUUUUGGGAGAGCCAGCACAGUGAAAUGGACAGAAGGGCAGAGCAA [G5U G8U C9U C16A U17G] | 0.0387
AAGUAUAUAUGGGAGCUCCAGCACAGUGAAAUGGACAGAAGGGCAGAGCAA [G2A U3G G5A C6U U7A G8U C9A] | 0.0498
AGUUCACACAGGGAGCUCGGGCACAGUGAAAUGGACAGAAGGGCAGAGCAA [G5C C6A U7C G8A U10A C19G A20G] | 0.0527
AGUUGAAGAAGGGAGCAACAGCACAGUGAAAUGGACAGAAGGGCAGAGCAA [C6A U7A C9A U10A U17A C18A] | 0.427
AGUUAAUUUUGGGAGCUCCAGCACAGUGAAAUGGACAGAAGGGCAGAGCAA [G5A C6A G8U C9U] | 0.0445
AGUUCACACAGGGAGCUCCAGCACAGUGAAAUGGAUAGAAGGGCAGAGCAA [G5C C6A U7C G8A U10A C36U] | 0.0372
AGUUGCUGCUGGGAGCUCCAGCACAUAGAAAUGGACAGAAGGGCAGAGCAA [G26U U27A] | 0.0316
ACCUAGGGAUGGGAGCUCCAGCACAGUGAAAUGGACAGAAGGGCAGAGCAA [G2C U3C G5A C6G U7G C9A] | 0.0355
AGUUGAAGAAGGGAGCUCCAGCACAGUGAAAUGGACAGAAGGGCAAUGCAA [C6A U7A C9A U10A G46A A47U] | 0.928
AGUUACCAUUGGGAGCUCCAGCACAGUGAAAUGGACAGAAGGGCAGAGCAA [G5A U7C G8A C9U] | 0.959
AGUUCGCGCCGGGAGCUCCAGCACAGUGAAAUGGAAAGAAGGGCAGAGCAA [G5C C6G U7C U10C C36A] | 2.93
AGUUUCUUUUGGGAUAUCCAGCACAGUGAAAUGGACAGAAGGGCAGAGCAA [G5U G8U C9U G15U C16A] | 0.0344
AGUUGAAGAAGGGAGCUCCAGUGCAGUGAAAUGGACAGAAGGGCAGAGCAA [C6A U7A C9A U10A C22U A23G] | 0.694
AGUUGCUGUGGGGAGCUCCAGCACAGUGAAAUGGACAGAAGGGCAGAGCAA [C9U U10G] | 0.493
